2 molecules from PMC4952014 (2015) can be followed below.

Sequences and labels used below:
B1: JR-FL monomeric gp120 (natural protein)
chain: not shown
modifications: N-glycosylated and sialylated (293F-expressed). Limits are not printed: start is the candidate's CHAIN start at 32, end is the residue before gp41 at 503. A vector-derived N-terminus from the CD5 leader, and a C-terminus affected by the cleavage-site change, are possible but not stated.
B2: Siglec-1 (recombinant protein used for SPR) (receptor)
chain: SWGVSSPQDVQGVKGSCLLIPCIFSFPADVEVPDGITAIWYYDYSGQRQVVSHSADPKLVEARFRGRTEFMGNPEHRVCNLLLKDLQPEDSGSYNFRFEISEVNRWSDVKGTLVTVTEEPRVPTIASPVELLEGTEVDFNCSTPYVCLQEQVRLQWQGQDPARSVTFNSQKFEPTGVGHLETLHMAMSWQDHGRILRCQLSVANHRAQSEIHLQVKYAPKGVKILLSPSGRNILPGELVTLTCQVNSSYPAVSSIKWLKDGVRLQTKTGVLHLPQAAWSDAGVYTCQAENGVGSLVSPPISLHIFMAEVQVSPAGPILENQTVTLVCNTPNEAPSDLRYSWYKNHVLLEDAHSHTLRLHLATRADTGFYFCEVQNVHGSERSGPVSVVVNHPPLTPVLTAFLETQAGLVGILHCSVVSEPLATLVLSHGGHILASTSGDSDHSPRFSGTSGPNSLRLEIRDLEETDSGEYKCSATNSLGNATSTLDFHANAARLLISPAAEVVEGQAVTLSCRSGLSPTPDARFSWYLNGALLHEGPGSSLLLPAASSTDAGSYHCRARDGHSASGPSSPAVLTVLYPPRQPTFTTRLDLDAAGAGAGRRGLLLCRVDSDPPARLQLLHKDRVVATSLPSGGGCSTCGGCSPRMKVTKAPNLLRVEIHNPLLEEEGLYLCEASNALGNASTSATFNGQATVLAIAPSHTLQEGTEANLTCNVSREAAGSPANFSWFRNGVLWAQGPLETVTLLPVARTDAALYACRILTEAGAQLSTPVLLSVLYPPDRPKLSALLDMGQGHMALFICTVDSRPLALLALFHGEHLLATSLGPQVPSHGRFQAKAEANSLKLEVRELGLGDSGSYRCEATNVLGSSNTSLFFQVRGAWVQVSPSPELQEGQAVVLSCQVHTGVPEGTSYRWYRDGQPLQESTSATLRFAAITLTQAGAYHCQAQAPGSATTSLAAPISLHVSYAPRHVTLTTLMDTGPGRLGLLLCRVDSDPPAQLRLLHGDRLVASTLQGVGGPEGSSPRLHVAVAPNTLRLEIHGAMLEDEGVYICEASNTLGQASASADFDAQAVNVQVWPGATVREGQLVNLTCLVWTTHPAQLTYTWYQDGQQRLDAHSIPLPNVTVRDATSYRCGVGPPGRAPRLSRPITLDVLYAPRNLRLTYLLESHGGQLALVLCTVDSRPPAQLALSHAGRLLASSTAASVPNTLRLELRGPQPRDEGFYSCSARSPLGQANTSLELRLEGVRVILAPEAAVPEGAPITVTCADPAAHAPTLYTWYHNGRWLQEGPAASLSFLVATRAHAGAYSCQAQDAQGTRSSRPAALQVLYAPQDAVLSSFRDSRARSMAVIQCTVDSEPPAELALSHDGKVLATSSGVHSLASGTGHVQVARNALRLQVQDVPAGDDTYVCTAQNLLGSISTIGRLQVEGARVVAEPGLDVPEGAALNLSCRLLGGPGPVGNSTFAWFWNDRRLHAEPVPTLAFTHVARAQAGMYHCLAELPTGAAASAPVMLRVLYPPKTPTMMVFVEPEGGLRGILDCRVDSEPLASLTLHLGSRLVASSQPQGAPAEPHIHVLASPNALRVDIEALRPSDQGEYICSASNVLGSASTSTYFGVRALHRLHQFQQLLWVLGLLVGLLLLLLGLGACYTWRRRRVCKQSMGENSVEMAFQKETTQLIDPDAATCETSTCAPPLG

Assay [1] has as its target B2. The assay can be described thus: SPR; immobilized Siglec-1.
The target in assay [2] is T1, SF162 FD trimeric gp145 (HIV-1 SF162 | bacteriophage T4, UniProt P19551). The assay can be described thus: SPR; immobilized Siglec-1. For orientation: Surface plasmon resonance follows binding to a sensor surface in real time, without labels.
For assay [3], the target named is T2, JR-FL FD trimeric gp145 (HIV-1 JR-FL | bacteriophage T4). The assay can be described thus: SPR; immobilized Siglec-1.
Another assay has as its target Soc-V1V2JR-FL (293F) (bacteriophage T4 | HIV-1 JR-FL). In words: SPR; immobilized Siglec-1.
The target of the next assay is Soc-V1V2SF162 (CHO-S) (bacteriophage T4 | HIV-1 SF162). The assay can be described thus: SPR; immobilized Siglec-1.
The target in assay [4] is T1, SF162 FD trimeric gp145. The assay can be described thus: SPR; immobilized SF162 gp145.
In assay [5] the target is T2, JR-FL FD trimeric gp145. In words: SPR; immobilized JR-FL gp145.

Consider B1, for which the Kd in assay [1] was 4.13 nM.
For the molecule B2, the dissociation constant Kd with SF162 FD trimeric gp145 [2] was 0.441 nM; in the assay with JR-FL FD trimeric gp145 [3], 0.28 nM; with Soc-V1V2JR-FL (293F) it was 4.34 nM; with Soc-V1V2SF162 (CHO-S), 1.96 nM; with SF162 FD trimeric gp145 [4], 8.26 nM; with JR-FL FD trimeric gp145 [5], 2.9 nM.

In general, Kd refers to the equilibrium constant for the complex coming apart.
